Laboratory results published in patent publication US20120114682A1 (GEORGIA TECH RESEARCH, published 2012).
Where no end group is shown, it is not given here.

T1: Fibrinogen fragment D (human, UniProt P02671 130-216; P02675 164-491; P02679 114-432, limits assumed)
T1 construct: domain: Fragment D (or D-domain); Made by plasmin digestion of human fibrinogen and purified on GPRPAA beads; holds the C-terminal polymerization pockets without the N-terminal knobs; immobilised by amine coupling on the SPR chip; also called D-domain
T1 sequence (looked up) 1: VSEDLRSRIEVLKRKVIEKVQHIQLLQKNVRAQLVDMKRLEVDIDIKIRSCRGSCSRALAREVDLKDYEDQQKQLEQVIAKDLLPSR
T1 sequence (looked up) 2: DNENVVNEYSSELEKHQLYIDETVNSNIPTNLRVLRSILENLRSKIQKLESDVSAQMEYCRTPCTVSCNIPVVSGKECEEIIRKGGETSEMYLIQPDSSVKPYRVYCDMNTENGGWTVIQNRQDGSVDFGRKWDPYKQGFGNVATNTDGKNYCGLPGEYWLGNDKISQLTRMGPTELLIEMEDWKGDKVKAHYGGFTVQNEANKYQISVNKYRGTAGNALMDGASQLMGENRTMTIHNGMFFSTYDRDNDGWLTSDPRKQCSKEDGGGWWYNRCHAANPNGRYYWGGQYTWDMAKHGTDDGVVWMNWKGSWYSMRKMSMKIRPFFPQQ
T1 sequence (looked up) 3: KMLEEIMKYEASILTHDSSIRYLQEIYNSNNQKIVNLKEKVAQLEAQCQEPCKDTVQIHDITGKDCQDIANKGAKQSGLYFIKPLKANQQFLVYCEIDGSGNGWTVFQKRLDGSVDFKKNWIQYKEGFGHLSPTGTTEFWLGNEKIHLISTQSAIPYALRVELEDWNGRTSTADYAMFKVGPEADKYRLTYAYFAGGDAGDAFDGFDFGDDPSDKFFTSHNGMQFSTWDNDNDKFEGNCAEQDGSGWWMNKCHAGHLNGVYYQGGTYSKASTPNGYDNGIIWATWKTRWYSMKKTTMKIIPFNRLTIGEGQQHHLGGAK

B1: GPRP tetrapeptide (peptide)
peptide: GPRP
notes: Synthetic (Genscript); also called A-knob tetrapeptide mimetic; soluble GPRP peptide

How the values were obtained:
Fibrinogen fragment D [1] = biological target: T1, Fibrinogen fragment D; assay: SPR competition with GPRP-FnIII9-10 on immobilised fragment D
Fibrinogen fragment D [2] = biological target: T1, Fibrinogen fragment D; assay: affinity purification from plasmin-digested fibrinogen, elution with 1 M sodium bromide
Method: Human fibrinogen (# FIB3, Enzyme Research Laboratories, South Bend, Ind.) at 2 mg/mL was digested with 0.1 U/mL human plasmin (Enzyme Research Laboratories) in HEPES+Ca buffer (150 mM NaCl, 5 mM CaCl₂, 25 mM HEPES, pH 7.4) overnight at room temperature. Fragment D (or D-domain) was isolated as previously described, with slight modifications, using a polymeric resin with covalently linked GPRPAA (SEQ ID NO:10) peptide (Kostelansky M S, et al. Biochemistry 2002, 41(40):12124-12132). Briefly, the plasmin-digested fibrinogen and GPRPAA-beads were incubated for 30 min, with occasional agitation. The unbound protein fragments were removed with exhaustive washing with HEPES+Ca buffer. Fragment D was eluted using 1 M sodium bromide, 50 mM sodium acetate, pH 5.3 and exchanged back into HEPES+Ca buffer using a centrifugal filter with MWCO 10,000.

Binder | binding result (Fibrinogen fragment D [1]) | binding result (Fibrinogen fragment D [2])
B1 | binds | –
GPRPAA (not fully specified, also called GPRPAA-beads) [GPRPAA peptide covalently linked to a polymeric resin] | – | binds
